Molecular target: T1, carcinoembryonic antigen (CEA) on MKN-45 tumor cells (human, UniProt P06731 35-702)
T1 sequence (looked up): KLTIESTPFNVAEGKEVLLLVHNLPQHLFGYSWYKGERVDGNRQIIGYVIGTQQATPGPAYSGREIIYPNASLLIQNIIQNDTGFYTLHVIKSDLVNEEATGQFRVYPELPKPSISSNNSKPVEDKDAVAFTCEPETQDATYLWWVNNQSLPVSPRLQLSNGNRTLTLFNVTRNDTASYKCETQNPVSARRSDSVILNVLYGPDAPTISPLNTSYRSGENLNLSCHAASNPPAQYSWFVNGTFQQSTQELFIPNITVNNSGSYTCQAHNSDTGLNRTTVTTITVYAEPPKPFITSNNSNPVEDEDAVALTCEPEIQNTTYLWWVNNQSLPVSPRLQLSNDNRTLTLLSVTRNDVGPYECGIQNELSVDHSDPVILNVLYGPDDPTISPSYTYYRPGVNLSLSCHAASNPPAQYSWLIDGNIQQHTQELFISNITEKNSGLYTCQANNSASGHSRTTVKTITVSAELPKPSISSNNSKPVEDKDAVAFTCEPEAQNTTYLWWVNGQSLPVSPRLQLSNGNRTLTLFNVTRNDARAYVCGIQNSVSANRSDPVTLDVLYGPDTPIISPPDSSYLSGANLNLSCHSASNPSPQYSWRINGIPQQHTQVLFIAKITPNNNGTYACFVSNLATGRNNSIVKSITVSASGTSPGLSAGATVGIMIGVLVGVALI
Experiment: cell-based or functional assay

B1: CEA TCB (bispecific antibody)
chain 1: QAVVTQEPSLTVSPGGTVTLTCGSSTGAVTTSNYANWVQEKPGQAFRGLIGGTNKRAPGTPARFSGSLLGGKAALTLSGAQPEDEAEYYCALWYSNLWVFGGGTKLTVLSSASTKGPSVFPLAPSSKSTSGGTAALGCLVKDYFPEPVTVSWNSGALTSGVHTFPAVLQSSGLYSLSSVVTVPSSSLGTQTYICNVNHKPSNTKVDKKVEPKSC
chain 2: not shown
chain 3: QVQLVQSGAEVKKPGASVKVSCKASGYTFTEFGMNWVRQAPGQGLEWMGWINTKTGEATYVEEFKGRVTFTTDTSTSTAYMELRSLRSDDTAVYYCARWDFAYYVEAMDYWGQGTTVTVSSASTKGPSVFPLAPSSKSTSGGTAALGCLVKDYFPEPVTVSWNSGALTSGVHTFPAVLQSSGLYSLSSVVTVPSSSLGTQTYICNVNHKPSNTKVDKKVEPKSCDKTHTCPPCPAPEAAGGPSVFLFPPKPKDTLMISRTPEVTCVVVDVSHEDPEVKFNWYVDGVEVHNAKTKPREEQYNSTYRVVSVLTVLHQDWLNGKEYKCKVSNKALGAPIEKTISKAKGQPREPQVCTLPPSRDELTKNQVSLSCAVKGFYPSDIAVEWESNGQPENNYKTTPPVLDSDGSFFLVSKLTVDKSRWQQGNVFSCSVMHEALHNHYTQKSLSLSPGK
chain 4: DIQMTQSPSSLSASVGDRVTITCKASAAVGTYVAWYQQKPGKAPKLLIYSASYRKRGVPSRFSGSGSGTDFTLTISSLQPEDFATYYCHQYYTYPLFTFGQGTKLEIKRTVAAPSVFIFPPSDEQLKSGTASVVCLLNNFYPREAKVQWKVDNALQSGNSQESVTEQDSKDSTYSLSSTLTLSKADYEKHKVYACEVTHQGLSSPVTKSFNRGEC
EC50 of tumor cell killing (LDH release, MKN-45 cells with human PBMCs, E:T 10:1, 24 h): 615 pM
EC50 of tumor cell killing (LDH release, MKN-45 cells with human PBMCs, E:T 10:1, 48 h): 362 pM

Reference: patent US20200376119A1 (Hoffmann-La Roche, published 2020)
